Reference: the supplement of paper PMC10567573

B1: FBXO3 (parent)
chain: HDPLWRRHCKKYWLISEEEKTQKN
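Also: lentivirally expressed fusions sorted by FACS into six bins by GFP to DsRed ratio, PSI derived from sequencing read proportions per bin multiplied by bin number.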

Variants of: B1
Experiment: protein stability index of a GFP-peptide fusion (GPS, HEK-293T) (PSI 1-6); higher = more stable
Conditions: c terminus: a fixed tail appended
Work on HDPLWRRHCKHYWLISEEEKTQKN [K11H] yielded a protein stability index of 3.26. HDPLWRRHCKRYWLISEEEKTQKN [K11R] showed a protein stability index of 3.35. For GDPLWRRHCKKYWLISEEEKTQKN [H1G], the protein stability index was 3.29. Variant IDPLWRRHCKKYWLISEEEKTQKN [H1I] has a protein stability index of 2.06. CDPLWRRHCKKYWLISEEEKTQKN [H1C] gave a protein stability index of 3.53. For WDPLWRRHCKKYWLISEEEKTQKN [H1W], the protein stability index was 2.15. Variant NDPLWRRHCKKYWLISEEEKTQKN [H1N] has a protein stability index of 3.38. HDPLQRRHCKKYWLISEEEKTQKN [W5Q] showed a protein stability index of 4.25. With HDPLFRRHCKKYWLISEEEKTQKN [W5F] the protein stability index was 4.56. For HDPLLRRHCKKYWLISEEEKTQKN [W5L], the protein stability index was 4.35. HDPLCRRHCKKYWLISEEEKTQKN [W5C] gave a protein stability index of 3.77. HDPLPRRHCKKYWLISEEEKTQKN [W5P] showed a protein stability index of 3.78. With HDPLYRRHCKKYWLISEEEKTQKN [W5Y] the protein stability index was 4.71. HDPLHRRHCKKYWLISEEEKTQKN [W5H] gave a protein stability index of 3.94. For HDPLWRRHCKKYWLISEYEKTQKN [E18Y], the protein stability index was 2.31. For HDPLWRRHCKKYWLISEFEKTQKN [E18F], the protein stability index was 2.55. HDPLWRRHCKKYWLISEQEKTQKN [E18Q] gave a protein stability index of 2.94. In the case of HDPLWRRHCKKYWLISEEEKMQKN [T21M], the protein stability index is reported as 2.63. For HDPLWRRHCKKYWLISEEEKQQKN [T21Q], the protein stability index was 3.21. In the case of HDPLWRRHCKKYWLISEEEKLQKN [T21L], the protein stability index is reported as 2.76. For HDPLWRRHCKKYWLISEEEKKQKN [T21K], the protein stability index was 2.94. In the case of HDPLWRRHCKKYWLISEEEKIQKN [T21I], the protein stability index is reported as 3.29. With HDPLWRRHCKKYWLISQEEKTQKN [E17Q] the protein stability index was 2.98. With HDPLWRRHCKKYWLISFEEKTQKN [E17F] the protein stability index was 2.56. Variant HDPLWRRHCKKYWLISHEEKTQKN [E17H] has a protein stability index of 3.05. HDPLWRRHCKKYWLISCEEKTQKN [E17C] showed a protein stability index of 2.64. HDPLWRRHCKKYWLISMEEKTQKN [E17M] showed a protein stability index of 2.22. With HDPLWRRHCKKYWLISKEEKTQKN [E17K] the protein stability index was 3.31. HDPLWRRHCKKYWLISNEEKTQKN [E17N] gave a protein stability index of 2.98. HDPLWRRHCKKYWVISEEEKTQKN [L14V] gave a protein stability index of 3.27. Variant HDPLWRRHCKKYWAISEEEKTQKN [L14A] has a protein stability index of 3.57. HDPLWRRHCKKYWKISEEEKTQKN [L14K] showed a protein stability index of 3.53. Work on HDPLWRRHCKKYWEISEEEKTQKN [L14E] yielded a protein stability index of 3.77. HDPLWRRHCKKYWGISEEEKTQKN [L14G] gave a protein stability index of 3.79. With HDPLWRRHCKKYWNISEEEKTQKN [L14N] the protein stability index was 4.4. HDPLWRRHCKKYWHISEEEKTQKN [L14H] gave a protein stability index of 3.49. HDPLWRRHCKKYWDISEEEKTQKN [L14D] showed a protein stability index of 3.98. Variant HDPLWRRHCKKYWPISEEEKTQKN [L14P] has a protein stability index of 4.11. For HDPLWRRHCKKYWYISEEEKTQKN [L14Y], the protein stability index was 3.56. Work on HDPLWRTHCKKYWLISEEEKTQKN [R7T] yielded a protein stability index of 3.53. HDPLWRFHCKKYWLISEEEKTQKN [R7F] showed a protein stability index of 2.21. For HDPLWRGHCKKYWLISEEEKTQKN [R7G], the protein stability index was 4.02. With HDPLWRQHCKKYWLISEEEKTQKN [R7Q] the protein stability index was 3.54. In the case of HDPLWRVHCKKYWLISEEEKTQKN [R7V], the protein stability index is reported as 2.71. For HDPLWRMHCKKYWLISEEEKTQKN [R7M], the protein stability index was 2.86. With HDPLWRHHCKKYWLISEEEKTQKN [R7H] the protein stability index was 3.02. HDPLWRDHCKKYWLISEEEKTQKN [R7D] showed a protein stability index of 3.8. Variant HDPLWRRHCDKYWLISEEEKTQKN [K10D] has a protein stability index of 4.05. In the case of HDPLWRRHCYKYWLISEEEKTQKN [K10Y], the protein stability index is reported as 2.52. HDPLWRRHCEKYWLISEEEKTQKN [K10E] showed a protein stability index of 3.81. For HDPLWRRHCQKYWLISEEEKTQKN [K10Q], the protein stability index was 3.28. HDPLWRRHCTKYWLISEEEKTQKN [K10T] showed a protein stability index of 2.71. With HDPLWRRHCSKYWLISEEEKTQKN [K10S] the protein stability index was 3.32. For HDPLWRRHCKKYWLISEEEKTIKN [Q22I], the protein stability index was 2.49. For HDPLWRRHCKKYWLISEEEKTSKN [Q22S], the protein stability index was 2.97. Variant HDPLWRRHCKKYWLISEEEKTKKN [Q22K] has a protein stability index of 2.89. HDPLWRRHCKKYWLISEEEKTHKN [Q22H] showed a protein stability index of 2.99. In the case of HDPLWRRHCKKYWLISEEEKTGKN [Q22G], the protein stability index is reported as 3.18. HDPLWRRHCKKYWLISEEEKTCKN [Q22C] showed a protein stability index of 2.79. With HDPLWRRHCKKYWLISEEEKTRKN [Q22R] the protein stability index was 2.95. For HDPLWRRHCKKYWLISEEEKTYKN [Q22Y], the protein stability index was 2.58. HDPLWRRHCKKIWLISEEEKTQKN [Y12I] showed a protein stability index of 3.48. In the case of HDPLWRRHCKKLWLISEEEKTQKN [Y12L], the protein stability index is reported as 3.74. In the case of HDPLWRRHCKKVWLISEEEKTQKN [Y12V], the protein stability index is reported as 3.83. Work on HDPLWRRHCKKQWLISEEEKTQKN [Y12Q] yielded a protein stability index of 3.61. In the case of HDPLWRRHCKKMWLISEEEKTQKN [Y12M], the protein stability index is reported as 2.98. Work on HDPLWRRHCKKYWLISEEEKTQKP [N24P] yielded a protein stability index of 3.87. With HDPLWRRHCKKYWLISEEEKTQKE [N24E] the protein stability index was 3.12. Work on HDPLWRRHCKKYWLISEEEKTQKD [N24D] yielded a protein stability index of 3.68. Variant HDPLWRRHCKKYWLISEEEKTQKS [N24S] has a protein stability index of 2.91. HDPLWRRHCKKYWLISEEEKTQKI [N24I] gave a protein stability index of 2.48. With HDPLWRRHCKKYWLISEEEKTQKF [N24F] the protein stability index was 2.47. HDPLWRRHCKKYWLSSEEEKTQKN [I15S] showed a protein stability index of 3.62. Variant HDPLWRRHCKKYWLQSEEEKTQKN [I15Q] has a protein stability index of 3.68. Variant HDPLWRRHCKKYWLDSEEEKTQKN [I15D] has a protein stability index of 3.69. Variant HDPLWRRHCKKYWLMSEEEKTQKN [I15M] has a protein stability index of 3.16. With HDPLWRRHCKKYWLFSEEEKTQKN [I15F] the protein stability index was 3.38. HDPLWRRHCKKYWLTSEEEKTQKN [I15T] gave a protein stability index of 3.61. Variant HDPLWRRHCKKYWLGSEEEKTQKN [I15G] has a protein stability index of 3.69. HDPLWTRHCKKYWLISEEEKTQKN [R6T] showed a protein stability index of 3.43. Variant HDPLWERHCKKYWLISEEEKTQKN [R6E] has a protein stability index of 4.24. In the case of HDPLWWRHCKKYWLISEEEKTQKN [R6W], the protein stability index is reported as 2.46. For HDPLWARHCKKYWLISEEEKTQKN [R6A], the protein stability index was 2.99. In the case of HDPLWSRHCKKYWLISEEEKTQKN [R6S], the protein stability index is reported as 3.69. In the case of HDPLWGRHCKKYWLISEEEKTQKN [R6G], the protein stability index is reported as 3.6. HDPLWKRHCKKYWLISEEEKTQKN [R6K] showed a protein stability index of 3.32. For HDPLWRRHCKKYWLISEEEETQKN [K20E], the protein stability index was 3.64. Work on HDPLWRRHCKKYWLISEEEFTQKN [K20F] yielded a protein stability index of 2.6. With HDPLWRRHCKKYWLISEEEWTQKN [K20W] the protein stability index was 2.33. With HDPLWRRHCKKYWLISEEEPTQKN [K20P] the protein stability index was 2.91. Work on HDPLWRRHCKKYWLISEEENTQKN [K20N] yielded a protein stability index of 3.24. Variant HDPLWRRHCKKYWLISEEESTQKN [K20S] has a protein stability index of 3.2. Variant HDPLWRRHCKKYWLISEEETTQKN [K20T] has a protein stability index of 2.89. Variant HDPLWRRHCKKYWLISEEEDTQKN [K20D] has a protein stability index of 3.35.
